B1: Cyclin-dependent kinase 4 (Homo sapiens), P11802 (parent)
chain: MATSRYEPVAEIGVGAYGTVYKARDPHSGHFVALKSVRVPNGGGGGGGLPISTVREVALLRRLEAFEHPNVVRLMDVCATSRTDREIKVTLVFEHVDQDLRTYLDKAPPPGLPAETIKDLMRQFLRGLDFLHANCIVHRDLKPENILVTSGGTVKLADFGLARIYSYQMALTPVVVTLWYRAPEVLLQSTYATPVDMWSVGCIFAEMFRRKPLFCGNSEADQLGKIFDLIGLPPEDDWPRDVSLPRGAFPPRGPRPVQSVVPEMEESGAQLLLEMLTFNPHKRISAFRALQHSYLHKDEGNPE
partner: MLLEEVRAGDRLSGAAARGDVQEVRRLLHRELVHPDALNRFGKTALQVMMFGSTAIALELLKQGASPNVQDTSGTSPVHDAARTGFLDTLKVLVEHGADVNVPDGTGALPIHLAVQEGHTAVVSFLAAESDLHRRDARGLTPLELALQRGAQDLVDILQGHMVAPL
B2: Syntenin-2 (Homo sapiens), Q9H190 (parent)
chain: MSSLYPSLEDLKVDQAIQAQVRASPKMPALPVQATAISPPPVLYPNLAELENYMGLSLSSQEVQESLLQIPEGDSTAVSGPGPGQMVAPVTGYSLGVRRAEIKPGVREIHLCKDERGKTGLRLRKVDQGLFVQLVQANTPASLVGLRFGDQLLQIDGRDCAGWSSHKAHQVVKKASGDKIVVVVRDRPFQRTVTMHKDSMGHVGFVIKKGKIVSLVKGSSAARNGLLTNHYVCEVDGQNVIGLKDKKIMEILATAGNVVTLTIIPSVIYEHMVKKLPPVLLHHTMDHSIPDA
partner: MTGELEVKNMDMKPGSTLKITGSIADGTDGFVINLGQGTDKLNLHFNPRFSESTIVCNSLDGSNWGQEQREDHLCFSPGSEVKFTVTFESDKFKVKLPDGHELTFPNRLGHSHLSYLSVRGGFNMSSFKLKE
B3: Proteasome inhibitor PI31 subunit (Homo sapiens), Q92530 (parent)
chain: MAGLEVLFASAAPAITCRQDALVCFLHWEVVTHGYFGLGVGDQPGPNDKKSELLPAGWNNNKDLYVLRYEYKDGSRKLLVKAITVESSMILNVLEYGSQQVADLTLNLDDYIDAEHLGDFHRTYKNSEELRSRIVSGIITPIHEQWEKANVSSPHREFPPATAREVDPLRIPPHHPHTSRQPPWCDPLGPFVVGGEDLDPFGPRRGGMIVDPLRSGFPRALIDPSSGLPNRLPPGAVPPGARFDPFGPIGTSPPGPNPDHLPPPGYDDMYL
partner: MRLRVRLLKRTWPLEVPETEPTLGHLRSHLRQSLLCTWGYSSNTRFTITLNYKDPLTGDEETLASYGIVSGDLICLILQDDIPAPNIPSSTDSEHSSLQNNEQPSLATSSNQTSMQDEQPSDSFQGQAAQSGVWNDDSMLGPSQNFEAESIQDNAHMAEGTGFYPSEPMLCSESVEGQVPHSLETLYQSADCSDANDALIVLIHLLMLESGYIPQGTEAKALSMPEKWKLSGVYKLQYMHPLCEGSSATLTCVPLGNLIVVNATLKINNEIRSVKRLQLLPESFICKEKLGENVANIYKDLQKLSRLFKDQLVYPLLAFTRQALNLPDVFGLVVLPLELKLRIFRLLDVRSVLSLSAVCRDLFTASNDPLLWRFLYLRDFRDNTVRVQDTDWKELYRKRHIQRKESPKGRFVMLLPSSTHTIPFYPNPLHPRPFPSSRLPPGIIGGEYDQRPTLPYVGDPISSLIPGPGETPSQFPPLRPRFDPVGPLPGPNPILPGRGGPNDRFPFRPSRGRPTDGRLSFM
B4: Proto-oncogene serine/threonine-protein kinase mos (Homo sapiens), P00540 (parent)
chain: MPSPLALRPYLRSEFSPSVDARPCSSPSELPAKLLLGATLPRAPRLPRRLAWCSIDWEQVCLLQRLGAGGFGSVYKATYRGVPVAIKQVNKCTKNRLASRRSFWAELNVARLRHDNIVRVVAASTRTPAGSNSLGTIIMEFGGNVTLHQVIYGAAGHPEGDAGEPHCRTGGQLSLGKCLKYSLDVVNGLLFLHSQSIVHLDLKPANILISEQDVCKISDFGCSEKLEDLLCFQTPSYPLGGTYTHRAPELLKGEGVTPKADIYSFAITLWQMTTKQAPYSGERQHILYAVVAYDLRPSLSAAVFEDSLPGQRLGDVIQRCWRPSAAQRPSARLLLVDLTSLKAELG
partner: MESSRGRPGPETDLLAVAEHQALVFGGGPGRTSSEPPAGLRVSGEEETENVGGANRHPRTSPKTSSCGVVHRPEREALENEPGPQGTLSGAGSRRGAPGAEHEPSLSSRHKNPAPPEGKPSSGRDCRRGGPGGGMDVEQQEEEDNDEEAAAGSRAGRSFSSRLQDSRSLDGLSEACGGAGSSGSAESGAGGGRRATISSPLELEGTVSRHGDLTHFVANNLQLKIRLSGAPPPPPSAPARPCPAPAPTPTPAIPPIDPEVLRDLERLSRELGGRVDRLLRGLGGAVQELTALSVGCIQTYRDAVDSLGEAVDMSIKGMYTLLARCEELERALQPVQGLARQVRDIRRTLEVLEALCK
B5: Isoform 1 of Segment polarity protein dishevelled homolog DVL-3 (Homo sapiens), Q92997-1 (parent)
chain: MGETKIIYHLDGQETPYLVKLPLPAERVTLADFKGVLQRPSYKFFFKSMDDDFGVVKEEISDDNAKLPCFNGRVVSWLVSAEGSHPDPAPFCADNPSELPPPMERTGGIGDSRPPSFHPHAGGGSQENLDNDTETDSLVSAQRERPRRRDGPEHATRLNGTAKGERRREPGGYDSSSTLMSSELETTSFFDSDEDDSTSRFSSSTEQSSASRLMRRHKRRRRKQKVSRIERSSSFSSITDSTMSLNIITVTLNMEKYNFLGISIVGQSNERGDGGIYIGSIMKGGAVAADGRIEPGDMLLQVNEINFENMSNDDAVRVLREIVHKPGPITLTVAKCWDPSPRGCFTLPRSEPIRPIDPAAWVSHTAAMTGTFPAYGMSPSLSTITSTSSSITSSIPDTERLDDFHLSIHSDMAAIVKAMASPESGLEVRDRMWLKITIPNAFIGSDVVDWLYHNVEGFTDRREARKYASNLLKAGFIRHTVNKITFSEQCYYIFGDLCGNMANLSLHDHDGSSGASDQDTLAPLPHPGAAPWPMAFPYQYPPPPHPYNPHPGFPELGYSYGGGSASSQHSEGSRSSGSNRSGSDRRKEKDPKAGDSKSGGSGSESDHTTRSSLRGPRERAPSERSGPAASEHSHRSHHSLASSLRSHHTHPSYGPPGVPPLYGPPMLMMPPPPAAMGPPGAPPGRDLASVPPELTASRQSFRMAMGNPSEFFVDVM

Variants of: B1
Details: with cdn2d_human CDKN2D

| effect of a mutation on the interaction | Variant |
| --- | --- |
| with no effect | S52N |

Variants of: B2
Details: with leg2_human LGALS2, P05162

| effect of a mutation on the interaction | Variant |
| --- | --- |
| disrupting interaction strength | R223C |

Variants of: B3
Details: with fbx7_human FBXO7, Q9Y3I1

| effect of a mutation on the interaction | Variant |
| --- | --- |
| with no effect | V192A |

Variants of: B4
Details: with borc6_human BORCS6, Q96GS4

| effect of a mutation on the interaction | Variant |
| --- | --- |
| disrupting interaction strength | A123T |
| with no effect | A105S |

Variants of: B5
Details: with kat7_human KAT7, O95251
Chain of kat7_human KAT7, O95251 (O95251 whole entry): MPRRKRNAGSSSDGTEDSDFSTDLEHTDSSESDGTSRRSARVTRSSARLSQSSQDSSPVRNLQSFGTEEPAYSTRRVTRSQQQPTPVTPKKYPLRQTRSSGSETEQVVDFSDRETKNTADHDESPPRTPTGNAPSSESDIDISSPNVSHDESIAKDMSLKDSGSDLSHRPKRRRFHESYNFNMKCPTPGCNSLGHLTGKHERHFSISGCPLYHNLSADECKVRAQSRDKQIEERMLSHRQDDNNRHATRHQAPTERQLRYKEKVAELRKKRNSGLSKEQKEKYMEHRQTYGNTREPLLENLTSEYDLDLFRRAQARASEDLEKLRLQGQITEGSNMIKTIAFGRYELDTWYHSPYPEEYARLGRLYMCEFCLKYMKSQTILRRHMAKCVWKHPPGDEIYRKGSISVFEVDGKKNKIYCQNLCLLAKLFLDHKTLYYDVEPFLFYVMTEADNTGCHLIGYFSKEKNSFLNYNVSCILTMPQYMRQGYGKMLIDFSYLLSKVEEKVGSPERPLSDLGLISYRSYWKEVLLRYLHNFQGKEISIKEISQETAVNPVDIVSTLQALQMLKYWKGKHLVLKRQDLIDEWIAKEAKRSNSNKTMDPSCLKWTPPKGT

| effect of a mutation on the interaction | Variant |
| --- | --- |
| with no effect | R216T |

From IntAct's records for PubMed 31515488
